Where two headings read alike, the source gives them in different places.
T1: extracellular domain of human KLB expressed with C-terminal HA and hexahistidine tags (human, UniProt Q86Z14 1-996)
T1 construct: also called hKLB-HA-6His; hKLB-HA-6his
T1 sequence: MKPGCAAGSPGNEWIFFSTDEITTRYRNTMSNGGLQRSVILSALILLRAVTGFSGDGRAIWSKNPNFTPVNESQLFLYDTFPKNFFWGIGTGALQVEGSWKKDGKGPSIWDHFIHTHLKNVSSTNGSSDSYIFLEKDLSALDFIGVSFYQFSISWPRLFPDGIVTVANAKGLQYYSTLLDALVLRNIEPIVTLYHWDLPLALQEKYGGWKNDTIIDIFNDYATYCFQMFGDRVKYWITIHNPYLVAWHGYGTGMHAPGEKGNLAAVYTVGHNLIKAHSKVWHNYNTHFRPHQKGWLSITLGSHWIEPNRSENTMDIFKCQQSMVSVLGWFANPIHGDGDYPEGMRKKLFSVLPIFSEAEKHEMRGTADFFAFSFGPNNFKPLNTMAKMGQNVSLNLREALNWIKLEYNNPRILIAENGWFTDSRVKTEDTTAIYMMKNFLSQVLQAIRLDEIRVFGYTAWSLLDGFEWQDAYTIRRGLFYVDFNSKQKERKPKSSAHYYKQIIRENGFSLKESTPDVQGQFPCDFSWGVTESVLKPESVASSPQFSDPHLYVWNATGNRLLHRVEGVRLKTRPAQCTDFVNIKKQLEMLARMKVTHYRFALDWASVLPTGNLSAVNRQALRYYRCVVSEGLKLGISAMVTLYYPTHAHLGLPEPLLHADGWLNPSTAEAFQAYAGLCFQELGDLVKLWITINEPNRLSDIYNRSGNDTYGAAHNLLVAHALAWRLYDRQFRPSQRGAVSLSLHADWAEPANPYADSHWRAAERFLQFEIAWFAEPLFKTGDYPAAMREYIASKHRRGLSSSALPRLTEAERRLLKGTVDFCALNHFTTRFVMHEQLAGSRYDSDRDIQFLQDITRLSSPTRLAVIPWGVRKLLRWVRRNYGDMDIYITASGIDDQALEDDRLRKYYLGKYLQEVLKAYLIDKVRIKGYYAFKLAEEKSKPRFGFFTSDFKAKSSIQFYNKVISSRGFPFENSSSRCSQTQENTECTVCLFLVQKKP

B1: H4H8881P (antibody, V domains shown)
VH: QVQLVQSGAEVKKPGASVKVSCKASGYTFTSYVIHWVRQAPGQRLEWMGWSNAANGDTKYSQEFQDRVTFTRDTSASTAYMELSSLRSEDMAVYYCARWNWNYGAFDIWGQGTMVTVSS
VL: DIQMTQSPSSLSASVGDRVTITCQASQDINNYLHWYQQKSGKAPNLLIYDASILETGVPSRFSGSGSGTDFTFTISSLQPEDIATYYCQQYDNLPYTFGQGTKLEIK
notes: human IgG4 Fc (H4H prefix)
B2: H1H8897P (antibody, V domains shown)
VH: QVQLVESGGGLVKPGGSLRLSCAAAGFTFSDYYMSWIRQAPGQGLEWVSYISPSGSTTYYADSVQGRFTISRDNAKSSLYLQMNSLRAEDTAVYYCARTGIQLWSVYFDYWGQGTLVTVSS
VL: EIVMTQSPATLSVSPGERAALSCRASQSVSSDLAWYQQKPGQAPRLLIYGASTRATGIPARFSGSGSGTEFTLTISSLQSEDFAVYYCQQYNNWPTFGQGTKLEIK
notes: H1H Fc prefix (human Fc)
B3: H1H8898P (antibody, V domains shown)
VH: QVQLVESGGGLVKPGGSLRLSCAASGFIFSDYYMSWIRQAPGKGLDWISYISPSGSTIYYADSVKGRFTISRDNAKNSLYLQMNSLRADDTAVYYCARTGIQLWSVYFDYWGQGTLVTVSS
VL: EIVMTQSPATLSVSPGERATLSCRASQSVGSNLAWYQQKPGQAPRLLIYGASTRANGIPARFSGSGSGTEFTLTISGLQSEDFAVYYCQQYNNWPTFGQGTKLEIK
notes: H1H Fc prefix (human Fc)
B4: H2aM8091N (antibody, V domains shown)
VH: QVQLVQSGADMKKPGASVKVSCKASGYTFTTYGINWVRQAPGQGLEWMGWISAYSGITNYAQSFQGRVTMTTDTSTSTAYMELRSLRSDDTAVYYCARGGYNWATGDYFDYWGQGTLVTVSS
VL: DIQMTQSPSTLSASIGDRVTITCRASQSISSWLAWYQQKPGKAPKFLIYKASSLASGVPSRFSGSGSGTEFTLTISSLQPDDFATYYCQQYDSYSPYTFGQGTKVEIK
notes: mouse IgG2 Fc (H2aM prefix); also called H2M8091N
B5: H4H8870P (antibody, V domains shown)
VH: EVQLVESGGGVVRPGGSLRLSCAASGFKFDVYGMSWVRQLPGKGLEWVSGISWTGGSSGYADSVKGRFTISRDNGKKSLYLQMNSLRAEDTALYYCTREEDYWGQGTLVTVSS
VL: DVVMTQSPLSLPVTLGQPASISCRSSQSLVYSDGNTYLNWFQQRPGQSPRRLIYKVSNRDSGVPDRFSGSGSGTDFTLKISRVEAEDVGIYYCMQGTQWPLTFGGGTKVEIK
notes: human IgG4 Fc (H4H prefix)
B6: H4H8880P (antibody, V domains shown)
VH: EVQLVESGGGVVQPGGSLRLSCAASGFTFSLYAMSWVRQAPGKGLEWVSAISGSAHGAYYADSVKGRFTISRDNSKNSLYLQMNSLRAEDTAIYYCAKDLVIAVAGTFDYWGQGTLVTVSS
VL: DIQMTQSPSSLSASVGDRVTITCRASQIISTYLNWYQQKPGKAPKILIYTASSLKSGVPSRFSGSGSGTDFTLTISSLQPEDFATYYCQQTYSSPRFTFGPGTKVDIK
notes: human IgG4 Fc (H4H prefix)
B7: H2aM8092N (antibody, V domains shown)
VH: QVQLQESGPGLVKPSETLSLTCTVSGGSISSYYWSWIRQPPGKGLDWIGHIYYSGTTYYNPSLKSRVSISLDTSKNQFSLKLSSVTAADTAVYYCARHLRGYSSGREFDYWGQGTLVTVSS
VL: DIQMTQSPSSLSASVGGRVSLTCRASQSIFSYLNWYQQKPGKAPKLLIYAASNLQSGVPSRFSGSGSGTDFTLTISSLQPEDFATYSCQQSYNIPYTFGQGTKLEIK
notes: mouse IgG2 Fc (H2aM prefix); also called H2M8092N

Legend:
[1] = biological target: T2, human KLB and human FGFR1c co-expressed on HEK293/hKLB/hFGFR1c/SRE-luc cells (human, UniProt Q86Z14 1-1044; P11362 22-822); test: cell-based or functional assay
[2] = biological target: M. fascicularis KLB and human FGFR1c co-expressed on HEK293/MfKLB/hFGFR1c/SRE-Luc cells (M. fascicularis; human, UniProt A0A2K5WB58 1-1044); test: cell-based or functional assay
[3] = biological target: T1, extracellular domain of human KLB …; test: SPR, mAb captured, 25 C
Procedure, shortened: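 KD values derive from kinetic rate constants obtained by fitting real-time sensorgrams to a 1:1 binding model. Antibodies were held on anti-Fc capture surfaces matched to mouse or human Fc, with tagged receptor domains passed over in HBST, pH 7.4.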

[4] = biological target: mouse KLB and mouse FGFR1c co-expressed on HEK293/mKLB/mFGFR1c/SRE-Luc cells (mouse); test: cell-based or functional assay
[5] = biological target: T2, human KLB and human FGFR1c co-expressed …; test: cell-based or functional assay; remark: listed apart in the source
[6] = biological target: cell-surface human FGFR1c (amino acids 1-731 of NP_075594) with cell-surface human KLB on … (human, UniProt P11362 22-822); test: cell-based or functional assay
Sequence of cell-surface human FGFR1c (amino acids 1-731 of NP_075594) with cell-surface human KLB on … (P11362 22-822): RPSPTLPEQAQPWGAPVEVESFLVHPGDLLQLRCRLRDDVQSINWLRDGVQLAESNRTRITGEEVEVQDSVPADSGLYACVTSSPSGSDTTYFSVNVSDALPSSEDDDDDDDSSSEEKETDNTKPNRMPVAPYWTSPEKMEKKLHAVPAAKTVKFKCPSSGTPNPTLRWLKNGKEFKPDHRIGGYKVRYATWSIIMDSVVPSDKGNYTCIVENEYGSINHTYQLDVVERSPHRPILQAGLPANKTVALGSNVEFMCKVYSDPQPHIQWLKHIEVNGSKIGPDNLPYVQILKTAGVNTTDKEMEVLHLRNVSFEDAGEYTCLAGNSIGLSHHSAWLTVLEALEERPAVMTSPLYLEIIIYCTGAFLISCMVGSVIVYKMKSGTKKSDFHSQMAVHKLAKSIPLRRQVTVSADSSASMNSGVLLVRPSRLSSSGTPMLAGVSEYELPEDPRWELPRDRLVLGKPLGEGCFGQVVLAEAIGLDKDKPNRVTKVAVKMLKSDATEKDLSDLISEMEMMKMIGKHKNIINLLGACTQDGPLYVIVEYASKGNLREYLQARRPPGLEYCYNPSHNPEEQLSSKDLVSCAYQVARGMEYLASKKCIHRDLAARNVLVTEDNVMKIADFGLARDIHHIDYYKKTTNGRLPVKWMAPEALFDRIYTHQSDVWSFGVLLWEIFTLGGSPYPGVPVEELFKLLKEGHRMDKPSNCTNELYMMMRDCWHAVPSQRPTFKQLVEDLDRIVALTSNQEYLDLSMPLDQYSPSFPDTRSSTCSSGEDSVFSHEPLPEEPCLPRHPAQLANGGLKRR

| Binder | EC50, SRE-luc activation without ligand [1] [pM] | Maximum Activation (%) without ligand [1] [%] | EC50, SRE-luc activation without ligand [2] [pM] | IC50, inhibition of 10 nM mfFGF21 [2] [pM] | Maximum Activation (%) without ligand [2] [%] | Maximum Inhibition (%) of 10 nM mfFGF21 [2] [%] | 20 nM hKLB-HA-6His Bind (RU) [3] [RU] | Kd [3] [pM] | koff [3] [s⁻¹] | kon [3] [M⁻¹ s⁻¹] | t1/2 [3] [h] | Maximum Activation (%) without ligand [4] [%] | Maximum Inhibition (%) of 0.8 nM mFGF21 [4] [%] | Maximum Inhibition (%) [5] [%] | % Activation [6] [%] | EC50, SRE-luc activation [6] [pM] | EC50, SRE-luc activation without ligand [5] [pM] | IC50, inhibition of 1 nM 6His-hFGF21 [5] [pM] | Maximum Activation (%) [5] [%] |
| --- | --- | --- | --- | --- | --- | --- | --- | --- | --- | --- | --- | --- | --- | --- | --- | --- | --- | --- | --- |
| B1 | 72 | 7 | 20 | 46 | 3 | 77 | 92.7 | 124 | 0.000178 | 1.44e+06 | 1.08 | – | – | – | – | – | – | – | – |
| B2 | 19000 | 1 | – | 5200 | – | 101 | -0.4 | – | – | – | – | 3 | 50 | – | – | – | – | – | – |
| B3 | 8900 | 3 | – | 12000 | – | 97 | -0.2 | – | – | – | – | 2 | 29 | – | – | – | – | – | – |
| B4 | 3600 | 1 | – | 2300 | – | 104 | -2 | – | – | – | – | – | 90 | – | – | – | – | – | – |
| B5 | – | – | – | – | – | – | -0.6 | – | – | – | – | – | – | 10 | – | – | – | – | – |
| B6 | 54 | 1 | – | 120 | – | 39 | 68.1 | 640 | 0.000287 | 448000 | 0.672 | 2 | 16 | – | – | – | – | – | – |
| B7 | 200 | 1 | – | 220 | – | 18 | 64.1 | 383 | 5.56e-05 | 145000 | 3.46 | – | – | 74 | 0.8 | 150 | 290 | 190 | 0.6 |

Reference: patent US20170174769A1 (Regeneron, published 2017)
